We go through 4 molecules from article PMC3338718, “Characterization of a Novel ArsR-Like Regulator Encoded by Rv2034 in Mycobacterium tuberculosis”.

Series [1] has as its target T1, Rv2034ΔN28 del1-28 (Mycobacterium tuberculosis) (UniProt O53478).
T1 sequence: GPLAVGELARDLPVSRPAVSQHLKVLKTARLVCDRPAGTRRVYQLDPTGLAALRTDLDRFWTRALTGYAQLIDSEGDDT
Description: EMSA. Background: A gel shift assay detects complexes by their altered migration in electrophoresis.

Series [2] deals with T2, Rv2034 (ArsR family regulator) (Mycobacterium tuberculosis) (UniProt O53478).
T2 sequence: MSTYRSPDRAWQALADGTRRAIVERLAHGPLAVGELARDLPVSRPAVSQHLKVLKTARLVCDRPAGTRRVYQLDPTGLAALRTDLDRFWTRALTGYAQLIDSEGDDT
Description: EMSA.

In series [3] the target is T2, Rv2034 (ArsR family regulator) (Mycobacterium tuberculosis). Description: competition.
For series [4] the target is unchanged. The experiment in a line: DNase I footprinting.
For series [5], the target named is T3, Rv2034 (ArsR family regulator) (Mycobacterium tuberculosis, UniProt O53478 1-107).
T3 sequence: T2 sequence
The experiment in a line: EMSA; 0.1-1.2 uM protein. Particulars: protein: recombinant; tags: N-terminal His6 (pET28a); chain copies: 2; label: 5' label (32P or FITC); blunt.

Consider “AATTTCTAGAGCCTGCGGCAAGCACGTCGGTTCCATAGCGATCCAGCACGCCGCAATACTAGGGAGCCTCTCTGCCGGTCATCGCCGCGACGCGCCGCATGGGTTCTCGGAAAATGCTTGTACCAGTCGACTTTCCGGCGGGCCAACGTCGCCAACCGATACTCGGCTCCAACGCCATGGGTGACGGGATGCCCGGATCACGTGTCACACCACCCGCGCACCCTTGCGGAAGAATATCCGTAAGTCTAAACTTACGGTTCGAATTCCCGG (double strand) [Rv2034p promoter]”, for which the binding entry is “no binding” in series [1], “binds” in series [2] and “binds” in series [3].
On to “ACTGTCTAGAGTTGGCGCATGTACACCTGAGCCGTCGGCTCGCCCACTGGACCCGGCTCTACCCCGAGGTGCGGGTGGATCGGGCCATCGCCGGCGGCAGTGCGTGCCGTCATCTGGCCGCCAACGCAAAGCCGGGTCAGCTGTTCGTCGCGGACTCACACTCCGCGCACGAATTGTGCGGTGCATACCAGCCCGGATGCGCCGTACTTACGGTACGCAGTGCCAACTTGTAGGGAGCGGATCTTGGGAGTGGTGCCCTGGAATTCATCT (double strand) [Rv3133cp (dosR promoter)]”, for which the binding entry in series [2] is given as “binds”.
For “GATAGAATTCTACCAGTCGACTTTCCGGCGGGCCAACGTCGCCAACCGATACTCGGCTCCAACGCCATGGGTGACGGGATGCCCGGATCACGTGTCACACCACCCGCGCACCCTTGCGGAAGAATATCCGTAAGTCTAAACTTACGGTTCGTGTCCACTTACAGATCACCGGATCGCGCTTGGCAGGCGCTGGCGGACGGCACTCGCCGGGCCATCGTGGAGCGGCTGGCGCATCTAGATGTC (double strand) [Rv2034p footprint fragment]”, in series [4], the binding result is listed as “binds”.

B1: Rv2034BSwt (dsDNA)
DNA 1: GGAAGAATATCCGTAAGTCTAAACTTACGGTTCGTGTCCA
DNA 2: TGGACACGAACCGTAAGTTTAGACTTACGGATATTCTTCC
As to B1, in series [5], the binding result was “binds”.
